Reference: publication PMC11477141, “Chemokine Receptor N-Terminus Charge Dictates Reliance on Post-Translational Modifications for Effective Ligand Capture and Following Boosting by Defense Peptides” (International Journal of Molecular Sciences, 2024)
Where two headings read alike, the source gives them in different places.

Experiments:
[1] = target: T1, CCR1 (Homo sapiens, UniProt P32246); test: BRET CAMYEL cAMP sensor assay of ligand-induced Gαi signaling via CCR1; type: cell-based; conditions: n = 3
T1 construct: expressed in transfected cells; host or cells: CHO-K1, CHO-pgsB618 (GAG-minus), HEK293 WT / DeltaSia / sC
T1 sequence (P32246 1-355): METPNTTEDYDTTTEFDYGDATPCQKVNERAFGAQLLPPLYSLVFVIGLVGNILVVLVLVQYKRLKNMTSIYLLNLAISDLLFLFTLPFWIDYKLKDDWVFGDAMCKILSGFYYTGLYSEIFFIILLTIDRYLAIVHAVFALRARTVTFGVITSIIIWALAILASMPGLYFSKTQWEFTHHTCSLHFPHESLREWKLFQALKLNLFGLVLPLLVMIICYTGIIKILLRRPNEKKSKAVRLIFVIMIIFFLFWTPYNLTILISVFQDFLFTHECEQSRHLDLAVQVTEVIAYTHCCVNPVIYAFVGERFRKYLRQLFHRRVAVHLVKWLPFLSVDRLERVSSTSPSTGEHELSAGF
Method: For quantification of signaling initiated immediate downstream of receptor activation, we used the cAMP binding CAMYEL sensor to perform bioluminescence resonance energy transfer (BRET)-based assays. Shortly, in this assay increased receptor activation leads to an increase in BRET ratio. For detailed information see the Materials and Methods section.
In signaling assays testing the boosting ability of basic peptides, transfected cells were aliquoted into 96-well plates in the presence of 10 µM peptide or PBS vehicle. After R-Luc substrate addition, chemokines were added to reach final concentrations ranging from 0–100 nM (0, 0.1, 1, 10, and 100 nM) and forskolin was applied before reading emission at 475 and 525 nm.
BRET measurements of Gαi signaling and β-arrestin recruitment: Cells were seeded in 6-well plates (500,000 cells/well) and transiently transfected the following day. For BRET measurements of Gαi signaling, cells were transfected with vectors encoding the human chemokine receptors as indicated (160 ng/well) and the CAMYEL sensor (cAMP sensor, YFP-Epac-RLuc) (840 ng/well) using Lipofectamine (6 µL/well). Briefly, DNA was dissolved in 125 µL OPTI-MEM and Lipofectamine was dissolved in 125 µL OPTI-MEM. The DNA and Lipofectamine solutions were combined into a transfection mixture. The transfection mixture was added dropwise to cells incubated in OPTI-MEM (1 mL/well). Transfections were terminated after 5 h by adding 1 mL of fresh culture medium on top of the OPTI-MEM. The following day the cells were loosened from the plates in PBS with 5 mM glucose and subsequently aliquoted in white 96-well iso plates (~25,000 cells/well). When using C21TP variants and defense peptides (hBD2 and histatin), these were added to a final concentration of 10 μM/well, while an equal amount of PBS was added to control cells. The bioluminescence substrate coelenterazine was added to a final conc. of 5 µM. After 10 min, varying ligand concentrations were added. For BRET measurements of Gαi signaling, forskolin was added 5 min after the addition of the ligand, to a final conc. of 5 µM. The plates were kept in the dark at all times. A Perkin Elmer Envision machine was used for measuring the emission signals at 530 and 480 nm. The BRET signal is determined as the ratio eYFP (530 nm)/Rluc (480 nm).
BRET principle with CAMYEL: For quantification of signaling initiated immediately downstream of receptor activation, we used the cAMP binding CAMYEL sensor to perform bioluminescence resonance energy transfer (BRET) based assays. In this assay we measure changes in intracellular cAMP levels in response to receptor activation. Activation of chemokine receptors lead to a decrease in cAMP through inhibition of adenylate cyclase (AC). In the current setup we initially add forskolin that stimulates AC directly to induce an increase in intracellular cAMP, and we then measure the ability of a ligand (chemokine) to counteract the forskolin-induced increase in cAMP. The cAMP sensor (CAMYEL cAMP sensor, YFP-Epac-RLuc) carries the donor Renilla luciferase (Rluc) and the acceptor YFP. Coelenterazine is a substrate for Rluc that will emit light at around 475 nm upon enzymatic cleavage catalyzed by Rluc. When Rluc and YFP are in close proximity, the energy from the emitted light from coelenterazine can be transferred to YFP, resulting in an excitation of YFP, leading to a BRET signal around 525 nm. EPAC is a cAMP binding protein that changes conformation upon cAMP binding. During low cAMP concentrations, Rluc and YFP are near each other, and a strong BRET signal at 525 nm is obtained. When cAMP levels increase, cAMP will bind to EPAC, creating a conformational change, separating Rluc and YFP, reducing the BRET ratio, and increasing the emission from Rluc at 475 nm. Thus, by measuring the ratio between the cAMP-bound (475 nm) and the cAMP-free (525 nm) state of CAMYEL we obtain a measure of receptor activation. […]

[2] = target: CCR2; conditions: mean ± SD; SD; read-out: binding affinity, Kd, for the WT receptor CCR2; cited from earlier work
Description: (§1) The reliance on electrostatic interactions between basic amino acids in the chemokine and acidic regions in the receptor N-terminus for chemokine receptor binding is illustrated by a study carried out by Hemmerich et al.. To investigate the influence of charge, hydrophobicity, and aromaticity on binding of CCL2 to its cognate receptor CCR2, this group substituted all surface-exposed residues on CCL2 by alanine. […] In contr ...

[3] = test system: CCR2 D25A/D27A mutant; conditions: cited from earlier work
Description: as §1

[4] = target: fully sulfated version of the CCR1 N-terminal peptide; design: method as in PMID 30567735; conditions: read-out: affinity for the fully sulfated version of the CCR1 N-terminal peptide; cited from earlier work
[5] = target: CCL2 (Homo sapiens) (UniProt P13500); conditions: cited from earlier work
Sequence of CCL2 (Homo sapiens) (P13500 24-99): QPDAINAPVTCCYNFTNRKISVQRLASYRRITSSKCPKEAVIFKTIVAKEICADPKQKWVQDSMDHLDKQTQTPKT

[6] = test system: peptide corresponding to the CCR2 receptor N-terminus; conditions: cited from earlier work
[7] = target: CCL5 (Homo sapiens) (UniProt P13501); conditions: cited from earlier work
Sequence of CCL5 (Homo sapiens) (P13501 24-91): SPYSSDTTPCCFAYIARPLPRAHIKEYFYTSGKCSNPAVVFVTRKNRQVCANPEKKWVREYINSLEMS

[8] = target: CCL7 (Homo sapiens) (UniProt P80098); conditions: cited from earlier work
Sequence of CCL7 (Homo sapiens) (P80098 24-99): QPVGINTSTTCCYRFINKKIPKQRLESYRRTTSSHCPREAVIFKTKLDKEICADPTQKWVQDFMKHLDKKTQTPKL

[9] = target: CCL2 (Homo sapiens) (UniProt P13500); conditions: cited from earlier work; remark: listed apart in the source
[10] = target: T2, chemokine receptor CCR1 (untagged, wild type) (human) (UniProt P32246)
T2 sequence: T1 sequence (P32246 1-355)

[11] = target: chemokine receptor CCR5 (untagged, wild type) (human) (UniProt P51681)
Sequence of chemokine receptor CCR5 (untagged, wild type) (human) (P51681 whole entry): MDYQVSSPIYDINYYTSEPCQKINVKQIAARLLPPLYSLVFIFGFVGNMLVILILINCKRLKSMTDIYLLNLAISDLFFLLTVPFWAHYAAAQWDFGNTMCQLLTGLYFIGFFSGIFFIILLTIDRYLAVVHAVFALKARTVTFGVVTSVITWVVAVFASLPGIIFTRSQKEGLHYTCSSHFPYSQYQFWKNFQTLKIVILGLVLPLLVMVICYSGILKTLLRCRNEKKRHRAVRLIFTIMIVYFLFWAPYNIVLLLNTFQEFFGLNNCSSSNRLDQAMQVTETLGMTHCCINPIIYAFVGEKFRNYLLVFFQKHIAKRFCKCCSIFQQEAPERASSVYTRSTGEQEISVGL

[12] = target: T3, FAM-labelled peptide corresponding to the naked (unmodified) CCR1 N-terminus (human, 5,6-carboxyfluorescein (5,6-FAM) on the N-terminus); test: fluorescence polarisation; FAM-labelled receptor N-terminal peptide as probe at 250 nM in FP buffer (1:3, PBS:MilliQ), black 384-well plate; basic peptide titrated in a two-fold series, 12.21 nM to 100 µM (told for C21TP^81-111); triplicates; Kd fitted in GraphPad Prism 9; conditions: both partners purified
T3 construct: first printed residue of the probe; stretch of the N-terminus of the chemokine receptor CCR1, not sulfated, not glycosylated; also called CCR1 N-terminal peptide; CCR1 probe
T3 peptide: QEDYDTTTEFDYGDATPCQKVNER

## CCL2: human chemokine from Peprotech
[1]; M1-tagged CCR1, HEK293 WT cells
  Gαi signaling response of M1-CCR1 to ligand: to a minor degree
[2]
  Kd: 0.066 ± 0.01 nM
[3]
  reduction in affinity, D25A/D27A mutant versus WT CCR2: approximately 50 fold
[3]; read-out: binding affinity, Kd, for the D25A/D27A mutant version of CCR2
  Kd: ≥ 3 nM
[4]
  Kd: 100 nM

## CCR2 (from UniProt P41597)
[5]
  Kd: > 3 nM

## CCL7: human chemokine from Peprotech
[1]; HEK293 DeltaSia and sC
  Gαi signaling via CCR1 in DeltaSia and sC cells compared to WT cells: persists in DeltaSia and sC to almost the same high level as observed in WT cells
[4]
  Kd: 100 nM
[6]
  increase of chemokine binding by tyrosine sulfation of the CCR2 N-terminus peptide: up to 36 fold

## CCR1 N-terminus (from UniProt P32246)
[7]
  Kd: 100 nM
[8]
  Kd: 100 nM
[9]
  Kd: 100 nM

## Human CCL5 (from UniProt P13501 24-91) (ligand)
[10]
  LogEC50 of CCL5-induced Gαi signaling (CAMYEL cAMP BRET) via CCR1 in CHO GAG-minus cells: -9.42
  LogEC50 of CCL5-induced Gαi signaling (CAMYEL cAMP BRET) via CCR1 in CHO GAG-plus (WT) cells: -8.89
[11]
  LogEC50 of CCL5-induced Gαi signaling (CAMYEL cAMP BRET) via CCR5 in CHO GAG-minus cells: -9.63
  LogEC50 of CCL5-induced Gαi signaling (CAMYEL cAMP BRET) via CCR5 in CHO GAG-plus (WT) cells: -7.52

B1: C21TP^81-111, basic C-terminal peptide of the chemokine CCL21 (last 31 aa, residues 81-111) (peptide, UniProt O00585 104-134, looked up)
peptide: RKDRGASKTGKKGKGSKGCKRTERSQTPKGP
notes: also called C-terminal peptide of CCL21; source: bought: Caslo (Lyngby, Denmark)
[12]
  Kd: ~2890 nM
